Measurements as given in paper PMC6616571.

Test system: wild-type DNA polymerase beta (human)
Test: EMSA
Settings: 10 nM DNA, 5 mM MgCl2; approximately 50% of DNA bound at 32 nM enzyme; EMSA: 50 mM Tris-HCl pH 7.5, 100 mM KCl, 5 mM MgCl2, 1 mM DTT, 10% glycerol, 100 ug/ml BSA, room temperature 5 min; 10% native PAGE at 4 C

1-nt gapped 34-bp DNA
K half: 32 nM
